Earlier results on 1 substance are cited in PMC10108826.

This data set has as its target sIL-6R soluble ECD (Homo sapiens) (UniProt P08887).
Chain of UniProt P08887 (P08887 20-355): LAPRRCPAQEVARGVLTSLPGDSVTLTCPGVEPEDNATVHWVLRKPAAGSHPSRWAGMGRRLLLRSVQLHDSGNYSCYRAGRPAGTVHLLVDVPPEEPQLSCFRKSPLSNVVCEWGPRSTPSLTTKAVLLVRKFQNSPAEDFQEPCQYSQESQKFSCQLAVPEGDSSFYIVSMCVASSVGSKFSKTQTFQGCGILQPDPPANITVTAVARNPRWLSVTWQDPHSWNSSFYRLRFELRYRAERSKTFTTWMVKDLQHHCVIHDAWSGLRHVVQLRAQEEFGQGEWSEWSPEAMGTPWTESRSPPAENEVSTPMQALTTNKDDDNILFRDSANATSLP

For orientation: Kd means a measure of binding affinity in units of concentration. With IL-6 (from UniProt P05231), the equilibrium dissociation constant (Kd) is 1 nM.
